Tests used:
freshly dissociated aMVM = format: in vitro ADME, mouse
Experimental: The peptide encoding FixR-cpp was chemically synthesized by Genscript (98% purity) to contain the cell permeating viral TAT sequence in the amino-terminus: […] (SEQ ID NO. 2). The amino terminus of the peptide contained a FITC fluorophore to visualize cell uptake. The peptide was resuspended in DMSO. Flow cytometric assays were performed to quantify FixR cellular uptake in both HEK293 cells and freshly dissociated aMVM. HEK293 cells were cultured in 12 well plates and incubated with different concentrations of FixR-cpp for 2 hours and stained for cell death detection using LIVE/DEAD™ Fixable Far Red Dead Cell Stain Kit (ThermoFisher Scientific, L10120). Similarly, non-TG and IQ/AA^tg freshly dissociated aMVM were incubated with various concentrations of FixR-cpp for 2 hours in Tyrode's solution (138 mM NaCl, 4 mM KCl, 1 mM MgCl2, 10 mM HEPES (pH 7.4 using NaOH), 0.2 mM NaHPO4 5 mM D-glucose, 1 mM CaCl2). For cellular uptake measurements, we utilized an LSR II (BD Biosciences) flow cytometer equipped with 405 nm, 488 nm, and 633 nm lasers for excitation and 18 different emission channels. Forward and side scatter signals were detected and used to gate for single and healthy cells. […] Histograms from the Fluorescein 5(6)-isothiocyanate (FITC) and Allophycocyanin (APC) channels for the single-cell population were obtained and analyzed using FlowJo (version X, FlowJo LLC).

NaV1.5 E1784K = target: T1, NaV1.5 E1784K (Homo sapiens, UniProt Q14524, E1784K); assay: Multichannel recordings of late Na current, NaV1.5 E1784K; format: cell-based; settings: co-expression
T1 construct: expressed in transfected cells; host or cells: HEK293 (ATCC CRL1573)
Excerpt: The human NaV1.5 channel corresponds to clone M77235.1 (GenBank) and is subcloned into pGW 1 vector with HindIII and SaII. To facilitate construction of channelopathic mutations in the channel carboxy-terminus, we introduced silent mutations into NaV1.5 to introduce an NruI cutting site near the channel carboxy-terminus (5329-gtggccacg-5337 into 5329-gtCgcGacg-5337). Subsequently, we used overlap-extension PCR and ligated the PCR product into NaV1.5/pGW1 using NruI and XbaI restriction sites (mutations: E1784K, S1904L, IQ/AA, and Q1909R). For generating the ΔKPQ and IFM/IQM mutations, we used overlap-extension PCR and ligated in NaV1.5/pGW1 following restriction digest using KpnI and XbaI site. For generation of NaV1.5 truncations, we PCR amplified relevant segments using a forward primer upstream of the KpnI site and a reverse primer that truncated at the appropriate location (Δ1810 and Δ1885) and included an XbaI site and ligated into NaV1.5/pW1 vector. For LILA/WICW mutations, we used overlap extension and used restriction site AgeI and NheI for subsequent ligation. All segments subjected to PCR amplification were verified by sequencing. For generating human FHF2 splice-variants, we synthesized gene fragments and ligated into pcDNA3 using BamHI/EcoRI restriction sites. Human FHF1A and FHF1B were subcloned into ECFP-N3 vector, FHF2 splice variants and FHF3 were subcloned into pcDNA3. […]

[1] = target: T2, NaV1.5 S1904L mutant channel (Homo sapiens, UniProt Q14524, S1904L); assay: Multichannel recordings of late Na current, NaV1.5 S1904L; format: cell-based; settings: co-expression
T2 construct: expressed in transfected cells; host or cells: HEK293 (ATCC CRL1573)
Experimental: HEK293 cells (ATCC CRL1573) were cultured on glass coverslips in 60-mm dishes and transfected using the Ca^2+-phosphate method as previously described. For electrophysiology experiments, we co-transfected 4-8 μg of cDNA encoding the desired channel variant with 4 μg of YFP, and 1 μg of simian virus 40 T-antigen. […] The culture media was replaced following 4 h of transfection. Electrophysiology recordings were then performed at room temperature 1-2 days following transfection.
Multichannel records were obtained in the on-cell configuration with either HEK293 cells or in aMVM as in our previous study. The pipette contained (in mM): 140 NaCl; 10 HEPES; 0.5 CaCl2; at 300 mOsm, adjusted with tetraethylammonium methanesulfonate; and pH 7.4 adjusted with tetraethylammonium hydroxide. To zero membrane potential, the bath contained (in mM): 132 K^+-glutamate; 5 KCl; 5 NaCl; 3 MgCl; 2 EGTA; 10 glucose; 20HEPES; at 300 mOsm adjusted with glucose; and pH 7.4 adjusted with NaOH. Data were acquired at room temperature using the integrating mode of an Axopatch 200A amplifier (Axon Instruments, Molecular Devices). Patch pipettes (3-10 MΩ) were pulled from ultra-thick-walled borosilicate glass (BF200-116-10; Sutter Instruments) using horizontal puller (P-97, Sutter Instruments), fire polished with a microforge (Narishige), and coated with Sylgard™ brand silicone elastomer (Dow Corning). Elementary currents were low-pass filtered at 2 kHz with a four-pole Bessel filter and digitized at 200 kHz with an ITC-18 unit (Instrutech), controlled by custom MATLAB software (Mathworks). For each pulse, we obtained P/8 leak pulses. Leak subtraction was performed using an automated algorithm which fit the kinetics of the leak current or the capacitive transient with convex optimization with L1 regularization.

Substance | enhancement in fluorescence intensity (freshly dissociated aMVM; 10 μM, 2 hours, flow-cytometer) [fold] | uptake into freshly dissociated cardiomyocytes (freshly dissociated aMVM; epifluorescence imaging) | change in INa,L (NaV1.5 E1784K) | change in INa,L [1]
FixR-cpp: FixR fused to HIV-1 TAT transduction domain, YGRKKRRQRRRAAAIASSLIRQKRQARESNSERVSASKRRSSPSKG (SEQ ID NO: 2) | ~150 | robust uptake |  | 
FixR: minimal 39-amino-acid FHF1A amino-terminal effector domain, MAAAIASSLIRQKRQARESNSDRVSASKRRSSPSKDGRS (SEQ ID NO: 4), expressed as peptide |  |  | inhibits INa,L | inhibits INa,L
